Data taken from article PMC8115288 (2021).

Key:
[1] = target: T1, GST-CTD (C-terminal domain of HIV-1 integrase, aa 201-288) (HIV-1 (Hx3B), UniProt P04585 1348-1435); experiment: GST-CTD 0.083 uM
T1 chain: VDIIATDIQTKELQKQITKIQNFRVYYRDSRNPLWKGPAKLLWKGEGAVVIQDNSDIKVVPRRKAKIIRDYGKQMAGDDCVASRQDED

[2] = target: T1, GST-CTD (C-terminal domain of HIV-1 …); experiment: GST-CTD 0.027 uM

B1: His6-SUMO-INI1_(183-304) (domain or fragment)
chain: PEVLVPIRLDMEIDGQKLRDAFTWNMNEKLMTPEMFSEILCDDLDLNPLTFVPAIASAIRQQIESYPTDSILEDQSDQRVIIKLNIHVGNISLVDQFEWDMSEKENSPEKFALKLCSELGLG
Kd [1]: 3 nM
Kd [2]: 3.5 nM
